Test results: patent US20150197559A1 (University of California, published 2015)
Where a chain is given by its changes, count along the chain named.

Key:
BoNT/A1 (Hall hyper) [1] = target: T1, BoNT/A1 (Hall hyper) (Clostridium botulinum, UniProt P0DPI0 2-1296); experiment: flow cytometry, yeast-displayed scFv, soluble toxin
BoNT/A1 (Hall hyper) [2] = target: T1, BoNT/A1 (Hall hyper); experiment: as above; remark: listed apart in the source
BoNT/A1 (Hall hyper) [3] = target: T1, BoNT/A1 (Hall hyper); experiment: flow cytometry, yeast-displayed scFv, soluble BoNT/A1
BoNT/A1 (Hall hyper) [4] = target: T1, BoNT/A1 (Hall hyper); experiment: KinExA flow fluorimetry, IgG in solution
BoNT/A1 (Hall hyper) [5] = target: T1, BoNT/A1 (Hall hyper)
BoNT/A1 (Hall hyper) [6] = target: T1, BoNT/A1 (Hall hyper); experiment: flow cytometry, yeast-displayed Fab, soluble toxin
BoNT/A1 (Hall hyper) [7] = target: T1, BoNT/A1 (Hall hyper); experiment: flow cytometry, yeast-displayed Fab against yeast-displayed scFv
BoNT/B1 [8] = target: T2, BoNT/B1 (Clostridium botulinum, UniProt P10844 2-1291); experiment: flow cytometry, yeast-displayed parental scFv
T2 sequence: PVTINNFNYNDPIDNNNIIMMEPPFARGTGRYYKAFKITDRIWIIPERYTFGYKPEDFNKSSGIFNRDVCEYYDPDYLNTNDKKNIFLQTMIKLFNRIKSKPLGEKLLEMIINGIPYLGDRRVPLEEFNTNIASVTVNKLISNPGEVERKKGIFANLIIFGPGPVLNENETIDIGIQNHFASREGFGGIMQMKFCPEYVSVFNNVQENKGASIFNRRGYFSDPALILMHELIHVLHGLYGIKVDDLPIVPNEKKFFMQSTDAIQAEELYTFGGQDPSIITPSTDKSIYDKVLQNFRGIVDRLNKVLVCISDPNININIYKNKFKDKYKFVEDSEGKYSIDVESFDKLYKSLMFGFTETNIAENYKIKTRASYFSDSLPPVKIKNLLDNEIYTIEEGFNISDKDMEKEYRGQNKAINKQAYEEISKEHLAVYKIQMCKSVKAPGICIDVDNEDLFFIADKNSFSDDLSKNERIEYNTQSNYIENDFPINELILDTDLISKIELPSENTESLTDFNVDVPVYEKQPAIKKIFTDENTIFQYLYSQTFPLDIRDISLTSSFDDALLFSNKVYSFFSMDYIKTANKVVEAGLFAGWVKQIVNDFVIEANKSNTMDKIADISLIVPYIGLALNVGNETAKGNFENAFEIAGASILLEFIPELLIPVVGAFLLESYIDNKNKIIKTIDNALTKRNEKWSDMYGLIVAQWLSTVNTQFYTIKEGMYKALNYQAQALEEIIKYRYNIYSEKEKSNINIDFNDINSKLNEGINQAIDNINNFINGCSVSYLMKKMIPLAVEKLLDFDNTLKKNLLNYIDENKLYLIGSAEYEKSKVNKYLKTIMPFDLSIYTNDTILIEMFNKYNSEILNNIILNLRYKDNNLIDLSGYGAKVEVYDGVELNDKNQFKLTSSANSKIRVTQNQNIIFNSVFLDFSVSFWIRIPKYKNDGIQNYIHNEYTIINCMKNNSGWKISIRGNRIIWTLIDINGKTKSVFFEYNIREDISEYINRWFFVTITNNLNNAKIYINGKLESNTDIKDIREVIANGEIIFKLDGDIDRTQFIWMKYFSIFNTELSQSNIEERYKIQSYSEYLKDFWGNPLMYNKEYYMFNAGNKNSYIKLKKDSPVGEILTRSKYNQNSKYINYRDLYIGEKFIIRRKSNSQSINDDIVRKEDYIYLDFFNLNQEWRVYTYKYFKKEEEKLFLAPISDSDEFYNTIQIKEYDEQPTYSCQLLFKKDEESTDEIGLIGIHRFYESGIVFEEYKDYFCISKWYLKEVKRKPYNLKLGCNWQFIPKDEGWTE

BoNT/B1 [9] = target: T2, BoNT/B1; experiment: flow cytometry, yeast-displayed scFv, soluble toxin
BoNT/B1 [10] = target: T2, BoNT/B1; experiment: flow cytometry, yeast-displayed Fab, soluble toxin
BoNT/B1 [11] = target: T2, BoNT/B1; experiment: flow cytometry, yeast-displayed Fab, soluble toxin; remark: listed apart in the source
BoNT/B1 [12] = target: T2, BoNT/B1; experiment: yeast-displayed Fab against parental B6 scFv, flow cytometry
BoNT/B1 [13] = target: T2, BoNT/B1; experiment: yeast-displayed Fab against parental B11 scFv, flow cytometry
BoNT/B1 [14] = target: T2, BoNT/B1
BoNT/B1 [15] = target: T2, BoNT/B1; experiment: KinExA flow fluorimetry, IgG in solution
BoNT/B1 [16] = target: T2, BoNT/B1; experiment: flow cytometry, yeast-displayed Fab against yeast-displayed scFv
BoNT/B2 = BoNT/B2 (Clostridium botulinum); experiment: flow cytometry, yeast-displayed scFv, soluble toxin
BoNT/B3 = BoNT/B3 (Clostridium botulinum); experiment: as above
BoNT/B4 = BoNT/B4 (Clostridium botulinum); experiment: as above
BoNT/B1 [17] = target: T2, BoNT/B1; experiment: as above; remark: listed apart in the source

B1: ING2 scFv (scFv, V domains shown)
VH: QVQLVQSGAEVKKPGSSVKVSCKASGDTFNRNAIAWVRQAPGQGLEWMGRIIPNLRTTHYAQKFQGRVAITADKHTNTVFMELSSLRSEDTAVYYCARDPYYYSYMDVWGKGTTVTVSS
VL: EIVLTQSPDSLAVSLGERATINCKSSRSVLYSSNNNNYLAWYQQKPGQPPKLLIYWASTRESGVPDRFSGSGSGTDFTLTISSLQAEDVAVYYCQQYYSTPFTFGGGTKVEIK
- Kd (BoNT/A1 (Hall hyper) [1]): 0.24 nM
- Kd (BoNT/A1 (Hall hyper) [2]): 0.238 nM
- Kd (BoNT/A1 (Hall hyper) [3]): 0.25 nM

B2: ING1 IgG (antibody, V domains shown)
VH: QVQLQQSGGGLVQPGGSLRLSCAASGFTFSNYAMTWVRQAPGKGLEWVSSISVGGSDTYYADSVKGRFTVSRDNSKNTLLLQMNSLRAEDTAVYYCAKVRTKYCSSLSCFAGFDSWGQGTRVTVSS
VL: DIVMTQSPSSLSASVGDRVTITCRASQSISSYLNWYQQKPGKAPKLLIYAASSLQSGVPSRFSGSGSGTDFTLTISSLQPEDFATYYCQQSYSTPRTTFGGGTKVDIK
- Kd (BoNT/A1 (Hall hyper) [4]): 0.314 nM

B3: ING2 IgG (antibody, V domains shown)
VH: B1 VH
VL: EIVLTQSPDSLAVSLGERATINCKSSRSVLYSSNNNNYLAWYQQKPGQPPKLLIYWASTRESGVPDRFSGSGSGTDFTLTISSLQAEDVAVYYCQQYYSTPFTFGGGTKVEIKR
- fold increase in affinity, IgG against parental scFv (BoNT/A1 (Hall hyper) [5]): 1.5 to 25 fold
- Kd (BoNT/A1 (Hall hyper) [4]): 0.00957 nM

B4: ING1 Fab (Fab, V domains shown)
VH: B2 VH
VL: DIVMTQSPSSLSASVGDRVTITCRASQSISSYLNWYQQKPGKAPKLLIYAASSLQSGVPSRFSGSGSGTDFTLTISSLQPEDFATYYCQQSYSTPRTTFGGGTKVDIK
- Kd (BoNT/A1 (Hall hyper) [6]): 20.6 nM
- fold lower affinity than the scFv (BoNT/A1 (Hall hyper) [7]): 3.9 fold

B5: B6 scFv (scFv)
scFv: QVQLVQSGAEVKKPGESLVISCKASGDKDTFTSFWIAWVRQMPGKGLEWMGIIYAGDSDTRYSPSFQGHVNISVDRSTNTAYLQWSSLKASDTAMYYCARHDSRYKYFYFGMDVWGQGTTVTVSSGGGGSGGGGSGGGGSDVVMTQSPSSLSASVGDRITITCQAGQDISNFLNWYQQKPGKAPKLLIRDASNLETGVPSRFSGGGSGTHFTFTISSLHPEDIATYFCQQYDNLPYTFGQGTKLEIK
- Kd (BoNT/B1 [8]): 2.71 nM
- Kd (BoNT/B1 [9]): 2.71 nM

B6: B6.1 Fab (Fab, V domains shown)
VH: QVQLVQSGAEVKKPGESLVISCKASGDKDTFTSFWIAWVRQMPGKGLEWMGIIYAGDSDTRYSPSFQGHVNISVDRSTNTAYLQWSSLKASDTAMYYCARHDSRYKYFYFGMDVWGQGTTVTVSS
VL: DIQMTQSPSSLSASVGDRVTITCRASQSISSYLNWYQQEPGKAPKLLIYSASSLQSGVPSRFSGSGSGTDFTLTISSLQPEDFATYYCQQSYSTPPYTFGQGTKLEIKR
- Kd (BoNT/B1 [10]): 0.286 nM
- Kd (BoNT/B1 [11]): 0.286 nM
- KD wild type/KD matured (BoNT/B1 [12]): 9 fold

B7: B11 scFv (scFv)
scFv: QVQLLQSAGGVVQPGRSLRLSCAASGFIFRTYGMHWVRQAPGKGLEWVAFVSSDGNNKFYSDSVKGRFTIPRDNAKNTLYLQMNSLETEDTAVYYCAKDRYPIDCSGGSCFSYGMDVWGQGTTVTVSSGGGGSGGGGSGGGGSDIVMTQSPSTLSASVGDRVTVTCRASQSINSWLAWYQQKPGKAPKLLIYEASSLESGVPSRFSGSGSGTEFTLTISSLQPDDFATYYCQQYDSYWLTFGGGTKVEIK
- Kd (BoNT/B1 [8]): 2.62 nM
- Kd (BoNT/B1 [9]): 2.62 nM

B8: B11E8 Fab (Fab, V domains shown)
VH: EVQLVQSGGGVVQPGRSLRLSCAASGFIFRTYGMHWVRQAPGKGLEWVAFVSSDGNNKFYSDSVKGRFTISRDNAKNTLYLQMNSLETEDTAMYYCAKDRYPIDCSGGSCFSYGMDVWGQGTTVTVSS
VL: EIVLTQSPATLSVSPGERATLSCRASQSVSKFLAWYQQKRGQAPRLLIYGASTRATGIPARFSGSGSGTEFALTISSLQSEDFADYYCQQYDNWPITFGQGTRLEIKR
- Kd (BoNT/B1 [10]): 0.081 nM
- KD wild type/KD matured (BoNT/B1 [13]): 32 fold

B9: B6.1 IgG (antibody, V domains shown)
VH: B6 VH
VL: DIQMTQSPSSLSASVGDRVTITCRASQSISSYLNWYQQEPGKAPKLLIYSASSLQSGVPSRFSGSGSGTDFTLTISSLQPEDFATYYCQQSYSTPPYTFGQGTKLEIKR
- fold increase in affinity, IgG against yeast displayed Fab (BoNT/B1 [14]): 42 fold
- Kd (BoNT/B1 [15]): 0.00682 nM

B10: B11E8 IgG (antibody, V domains shown)
VH: B8 VH
VL: B8 VL
- fold increase in affinity, IgG against yeast displayed Fab (BoNT/B1 [14]): 4.85 fold
- Kd (BoNT/B1 [15]): 0.00659 nM

B11: B11 Fab (Fab, V domains shown)
VH: B8 VH with E1Q, V5L, G8A, S71P, M93V
VL: DIVMTQSPSTLSASVGDRVTVTCRASQSINSWLAWYQQKPGKAPKLLIYEASSLESGVPSRFSGSGSGTEFTLTISSLQPDDFATYYCQQYDSYWLTFGGGTKVEIKR
- fold lower affinity than the scFv (BoNT/B1 [16]): 2.5 fold

B12: 2B27 scFv (scFv, V domains shown)
VH: EVQLQESGPGLVKPSETLSVTCAVSGGSISSSNYSWAWIRQPPGKGLEWIGTMYYSGSTHYHPSLKSRVTISVDTSKSQLSLKLSSVTAADTAVYYCARRRLLGPSPYYFDYWGQGTLVTVSS
VL: QSVVTQPPSVSGAPGQRVTISCSGSSSNIGAGYDVHWYQQLPGTAPKLLIYGNNNRPSGVPDRFSGSKSGTSASLAITGLQAEDEADYYCQSYDSSLSAYVFGTGTKLTVLG
- Kd (BoNT/B2): 0.56 nM
- Kd (BoNT/B3): 2.32 nM
- Kd (BoNT/B4): 0.77 nM
- Kd (BoNT/B1 [17]): 1.9 nM

B13: 2B29 scFv (scFv, V domains shown)
VH: QVQLQESGPGLVKPSETLSLTCSVSGGSINSGTYYWTWIRQHPGKGLEWIGYIYYSGTTYYNPSLKSRVSMSVDTSKNLFSLKMNSVTAADTALYYCARGNPQYDTSGSYTGLYFDFWGQGTLVTVSS
VL: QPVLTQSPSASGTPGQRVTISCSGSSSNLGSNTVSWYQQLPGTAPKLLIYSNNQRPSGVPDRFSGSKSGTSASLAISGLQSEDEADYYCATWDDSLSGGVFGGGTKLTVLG
- Kd (BoNT/B2): 1.02 nM
- Kd (BoNT/B3): 1.61 nM
- Kd (BoNT/B4): 1.29 nM
- Kd (BoNT/B1 [17]): 1.11 nM

B14: 1B11 scFv (scFv)
chain: B7 scFv
- Kd (BoNT/B3): 4.43 nM
- Kd (BoNT/B1 [17]): 2.6 nM
